Here are results for two variants from IntAct's records for PubMed 25751138.

Sequences and labels used below:
B1: DASH complex subunit DAM1 (Saccharomyces cerevisiae), P53267 (parent)
chain: MSEDKAKLGTTRSATEYRLSIGSAPTSRRSSMGESSSLMKFADQEGLTSSVGEYNENTIQQLLLPKIRELSDSIITLDSNFTRLNFIHESLADLNESLGSLLYGIMSNSWCVEFSQAPHDIQDDLIAIKQLKSLEDEKNNLVMELSNMERGIKRKKDEQGENDLAKASQNKQFNQPLFPSSQVRKYRSYDNRDKRKPSKIGNNLQVENEEDYEDDTSSEASFVLNPTNIGMSKSSQGHVTKTTRLNNNTNSKLRRKSILHTIRNSIASGADLPIENDNVVNLGDLHPNNRISLGSGAARVVNGPVTKNRNSMFSGRAERKPTESRHSVAKKTEKKINTRPPFR
B2: DASH complex subunit DAM1 (Saccharomyces cerevisiae), P53267 (parent)
chain: B1 chain
partner: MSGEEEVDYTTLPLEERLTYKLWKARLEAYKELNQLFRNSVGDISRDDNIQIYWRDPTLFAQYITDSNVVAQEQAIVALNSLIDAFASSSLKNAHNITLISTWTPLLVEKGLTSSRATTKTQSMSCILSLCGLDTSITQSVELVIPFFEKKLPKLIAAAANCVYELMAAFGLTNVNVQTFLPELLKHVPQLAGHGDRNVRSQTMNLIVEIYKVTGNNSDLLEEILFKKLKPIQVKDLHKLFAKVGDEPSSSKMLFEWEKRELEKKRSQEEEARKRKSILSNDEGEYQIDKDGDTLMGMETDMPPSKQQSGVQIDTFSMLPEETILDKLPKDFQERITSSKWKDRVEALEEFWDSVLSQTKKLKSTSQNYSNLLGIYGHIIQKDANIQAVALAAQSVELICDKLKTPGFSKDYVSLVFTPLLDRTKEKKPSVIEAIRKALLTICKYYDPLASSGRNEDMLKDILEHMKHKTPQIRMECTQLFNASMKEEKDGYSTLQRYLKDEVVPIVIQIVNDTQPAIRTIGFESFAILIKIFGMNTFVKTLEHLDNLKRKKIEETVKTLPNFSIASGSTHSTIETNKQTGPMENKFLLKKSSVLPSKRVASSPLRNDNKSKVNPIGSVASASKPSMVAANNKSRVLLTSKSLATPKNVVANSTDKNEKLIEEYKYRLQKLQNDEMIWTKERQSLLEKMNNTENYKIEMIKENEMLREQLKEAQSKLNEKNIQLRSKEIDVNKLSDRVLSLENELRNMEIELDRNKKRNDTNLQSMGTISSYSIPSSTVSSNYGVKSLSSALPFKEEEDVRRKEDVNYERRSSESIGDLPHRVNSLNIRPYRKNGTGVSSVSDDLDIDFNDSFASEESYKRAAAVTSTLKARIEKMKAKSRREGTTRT

In the first assay the parent is B1. As to conditions: with ndc80_yeast NDC80, P40460.
Chain of ndc80_yeast NDC80, P40460 (P40460 whole entry): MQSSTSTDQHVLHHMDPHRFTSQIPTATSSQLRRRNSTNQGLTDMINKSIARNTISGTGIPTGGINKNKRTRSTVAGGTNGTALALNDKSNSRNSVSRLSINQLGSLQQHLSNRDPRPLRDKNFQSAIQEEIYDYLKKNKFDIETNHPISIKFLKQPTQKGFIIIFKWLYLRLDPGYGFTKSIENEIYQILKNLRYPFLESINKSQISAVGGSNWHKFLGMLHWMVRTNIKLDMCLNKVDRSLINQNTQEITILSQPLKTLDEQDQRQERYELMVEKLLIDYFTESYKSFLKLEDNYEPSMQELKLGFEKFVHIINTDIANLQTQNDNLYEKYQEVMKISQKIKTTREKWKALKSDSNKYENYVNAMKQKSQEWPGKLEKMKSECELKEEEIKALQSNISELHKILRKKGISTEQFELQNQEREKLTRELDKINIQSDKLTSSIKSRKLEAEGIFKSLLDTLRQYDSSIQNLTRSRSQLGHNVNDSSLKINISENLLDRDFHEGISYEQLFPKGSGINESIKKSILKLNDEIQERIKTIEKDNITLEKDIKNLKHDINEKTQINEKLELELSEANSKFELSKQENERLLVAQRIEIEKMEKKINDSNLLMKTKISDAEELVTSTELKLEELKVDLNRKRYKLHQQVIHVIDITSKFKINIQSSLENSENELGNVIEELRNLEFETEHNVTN
Consider S257D;S265D;S292D;S327D, for which the “effect of a mutation on the interaction” value is “decreasing interaction strength”.

The next assay covers variants of B2. As to conditions: with stu2_yeast STU2, P46675.
Turning to S257D;S265D;S292D;S327D, the “effect of a mutation on the interaction” value is “disrupting interaction strength”.
